Consider one substance from US7470669B2, “Isolated polypeptide comprising a leptin fragment” (Serono Genetics Institute, S.A., priority 1999, dated 2008).

The test system of one series is LSR mRNA. Nature of the series: Northern analysis of LSR mRNA in PLC cells preincubated 24 h with leptin. In kind it is cell-based, human. Particulars: preincubated 24 h with 200-400 ng/mL leptin. The method, then:
FIGS. 35A and 35B show graphs of LSR activity and mRNA expression measured in PLC cells preincubated 24 h with leptin. In FIG. 35A, PLC monolayers were incubated 24 h at 37° C. with (o) or without (n) 200 ng/mL human recombinant leptin. After washing with PBS, cells were incubated 30 min at 37° C. with increasing concentrations of human leptin, followed by a 2 h incubation at 37° C. with 0.8 mM oleate and 20 μg/mL ^125I-LDL. Cells were washed, and the amount of oleate-induced ^125I-LDL binding was measured as described previously. Results are shown as the mean of triplicate determinations. In FIG. 35B, PLC monolayers were incubated 24 h at 37° C. with 0, 200, or 400 ng/mL human recombinant leptin. After washing with PBS, the cells were harvested. Total RNA was prepared from the cell pellets, and Northerns were performed to detect LSR mRNA, using GAPDH probe as loading control as described previously. Northern blots were scanned on the Phosphorimager (Molecular Dynamics, Sunnyvale, Calif.). Densitometric analysis of the images was performed using the software ImageQuant. Results are shown as the amount of LSR signal relative to that of GAPDH (mean±SD, n=3/condition). […]

The next series concerns rat LSR. Nature of the series: Ligand blot of 125I-leptin on partially purified rat LSR. Type of series: binding. Particulars: 200 ng/mL 125I-leptin. As to the method: Aliquots (72 μg) of partially purified rat liver LSR were separated on a 4%-12% SDS-gradient polyacrylamide gel, and transferred to nitrocellulose as described previously (Yen F. T., Masson M., Clossais-Besnard N., Andre P., Grosset J. M., Bougueleret L., Dumas J. B., Guerassimenko, O., and Bihain B. E. (1999). J Biol Chem 274, 13390-13398) a gel strip stained with Coomassie blue is shown in lane 1. The nitrocellulose strips were washed, blocked, and incubated with anti-rat LSR protein antiserum (1:1000 dilution) (lane 2), or with 200 ng/mL ^125I-leptin (lane 3). The strips were washed and bands were detected as described herein. Image analysis of lane 3 was performed on a Phosphorimager (Molecular Dynamics).
Partially purified rat LSR (240 kDa band complex) was obtained as described previously (Yen F. T., Masson M., Clossais-Besnard N., Andre P., Grosset J. M., Bougueleret L., […] Dumas J. B., Guerassimenko, O., and Bihain B. E. (1999). J Biol Chem 274, 13390-13398.) The band was separated on non-denaturing 4-12% gradient SDS polyacrylamide gel, and was transferred to nitrocellulose by semi-dry transfer (Biorad, 18 V, […]). […]

With “leptin: plasma protein of 16 kDa produced by adipocytes; recombinant human or mouse leptin, species depends on the experiment”, in the series on LSR mRNA, the “decrease of hepatocyte LSR mRNA relative to GAPDH” value is 25-35%. Further, the “binding of 125I-leptin to partially purified rat LSR multimeric complexes” value with rat LSR is given as “bound”.
